The sequences below were run on Escherichia coli TOP10 (assay: shrunken log2 fold change of peptide-encoding DNA abundance (4.5 h post-induction vs induction); higher = less antimicrobial activity (less host growth inhibition)). Details: time post-induction: 4.5 h; library: site-saturation at positions 5, 18, 19, 20.
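Further: peptides expressed intracellularly from a pBAD plasmid library in pooled LB shake-flask culture, induced with 0.3% L-arabinose, DNA abundance read by NGS, three biological replicates, DESeq2 with apeglm shrinkage.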

| Sequence | shrunken log2 fold change |
| --- | --- |
| RRIRIRPPRLPRPRPRPFEQPRP | -0.0348 |
| RRIRIRPPRLPRPRPRPFFVPRP | -0.294 |
| RRIRIRPPRLPRPRPRPFHVPRP | -0.121 |
| RRIRIRPPRLPRPRPRPFIHPRP | -0.872 |
| RRIRIRPPRLPRPRPRPFITPRP | -0.626 |
| RRIRIRPPRLPRPRPRPFKNPRP | -0.188 |
| RRIRIRPPRLPRPRPRPFKTPRP | 0.0132 |
| RRIRIRPPRLPRPRPRPFLNPRP | -0.429 |
| RRIRIRPPRLPRPRPRPFLRPRP | -0.2 |
| RRIRIRPPRLPRPRPRPFLVPRP | -0.759 |
| RRIRIRPPRLPRPRPRPFLYPRP | -0.84 |
| RRIRIRPPRLPRPRPRPFMIPRP | -0.73 |
| RRIRIRPPRLPRPRPRPFNNPRP | -0.318 |
| RRIRIRPPRLPRPRPRPFNYPRP | -0.149 |
| RRIRIRPPRLPRPRPRPFPEPRP | -0.45 |
| RRIRIRPPRLPRPRPRPFPKPRP | -0.101 |
| RRIRIRPPRLPRPRPRPFPWPRP | -0.519 |
| RRIRIRPPRLPRPRPRPFQFPRP | -0.237 |
| RRIRIRPPRLPRPRPRPFQLPRP | 0.0333 |
| RRIRIRPPRLPRPRPRPFRQPRP | 0.0326 |
| RRIRIRPPRLPRPRPRPFSAPRP | -0.517 |
| RRIRIRPPRLPRPRPRPFTRPRP | 0.114 |
| RRIRIRPPRLPRPRPRPFVNPRP | -0.488 |
| RRIRIRPPRLPRPRPRPFVRPRP | -0.0158 |
| RRIRIRPPRLPRPRPRPFWEPRP | 0.366 |

| Sequence | shrunken log2 fold change |
| --- | --- |
| RRIRIRPPRLPRPRPRPFWKPRP | 0.0187 |
| RRIRIRPPRLPRPRPRPFWVPRP | -0.2 |
| RRIRIRPPRLPRPRPRPFYNPRP | -0.756 |
| RRIRIRPPRLPRPRPRPFYVPRP | -1.11 |
| RRIRIRPPRLPRPRPRPGAAPRP | 0.18 |
| RRIRIRPPRLPRPRPRPGCLPRP | 1.56 |
| RRIRIRPPRLPRPRPRPGDAPRP | 0.0793 |
| RRIRIRPPRLPRPRPRPGDHPRP | 0.14 |
| RRIRIRPPRLPRPRPRPGDMPRP | -0.763 |
| RRIRIRPPRLPRPRPRPGDSPRP | 0.0577 |
| RRIRIRPPRLPRPRPRPGFKPRP | -0.219 |
| RRIRIRPPRLPRPRPRPGFQPRP | -0.106 |
| RRIRIRPPRLPRPRPRPGGLPRP | -0.16 |
| RRIRIRPPRLPRPRPRPGHFPRP | -0.0592 |
| RRIRIRPPRLPRPRPRPGHPPRP | -0.212 |
| RRIRIRPPRLPRPRPRPGHTPRP | -0.165 |
| RRIRIRPPRLPRPRPRPGIPPRP | -0.225 |
| RRIRIRPPRLPRPRPRPGIYPRP | -0.585 |
| RRIRIRPPRLPRPRPRPGKDPRP | 0.00215 |
| RRIRIRPPRLPRPRPRPGKIPRP | -0.0443 |
| RRIRIRPPRLPRPRPRPGKYPRP | -0.394 |
| RRIRIRPPRLPRPRPRPGLGPRP | 0.217 |
| RRIRIRPPRLPRPRPRPGNFPRP | -0.064 |
| RRIRIRPPRLPRPRPRPGNMPRP | -0.105 |
| RRIRIRPPRLPRPRPRPGNSPRP | -1.05 |

| Sequence | shrunken log2 fold change |
| --- | --- |
| RRIRIRPPRLPRPRPRPGPVPRP | -0.0724 |
| RRIRIRPPRLPRPRPRPGQTPRP | 0.0693 |
| RRIRIRPPRLPRPRPRPGRFPRP | 0.138 |
| RRIRIRPPRLPRPRPRPGRMPRP | 0.198 |
| RRIRIRPPRLPRPRPRPGSGPRP | 0.166 |
| RRIRIRPPRLPRPRPRPGTHPRP | -0.431 |
| RRIRIRPPRLPRPRPRPGVKPRP | -0.279 |
| RRIRIRPPRLPRPRPRPGVRPRP | 0.135 |
| RRIRIRPPRLPRPRPRPGVWPRP | 0.191 |
| RRIRIRPPRLPRPRPRPGYQPRP | -0.0481 |
| RRIRIRPPRLPRPRPRPHAQPRP | 0.142 |
| RRIRIRPPRLPRPRPRPHASPRP | -0.012 |
| RRIRIRPPRLPRPRPRPHFFPRP | -0.237 |
| RRIRIRPPRLPRPRPRPHFHPRP | -0.424 |
| RRIRIRPPRLPRPRPRPHFIPRP | -0.564 |
| RRIRIRPPRLPRPRPRPHFLPRP | -1.42 |
| RRIRIRPPRLPRPRPRPHKDPRP | -0.447 |
| RRIRIRPPRLPRPRPRPHKNPRP | -0.528 |
| RRIRIRPPRLPRPRPRPHKVPRP | -0.0742 |
| RRIRIRPPRLPRPRPRPHMTPRP | -0.64 |
| RRIRIRPPRLPRPRPRPHNCPRP | -0.0359 |
| RRIRIRPPRLPRPRPRPHNIPRP | -0.424 |
| RRIRIRPPRLPRPRPRPHNVPRP | -0.414 |
| RRIRIRPPRLPRPRPRPHNWPRP | -0.239 |
| RRIRIRPPRLPRPRPRPHQGPRP | -0.117 |

| Sequence | shrunken log2 fold change |
| --- | --- |
| RRIRIRPPRLPRPRPRPHQMPRP | 0.0234 |
| RRIRIRPPRLPRPRPRPHQWPRP | -0.246 |
| RRIRIRPPRLPRPRPRPHRKPRP | -0.551 |
| RRIRIRPPRLPRPRPRPHSVPRP | -0.0376 |
| RRIRIRPPRLPRPRPRPHTRPRP | -0.35 |
| RRIRIRPPRLPRPRPRPHTSPRP | -1.18 |
| RRIRIRPPRLPRPRPRPHWRPRP | -0.101 |
| RRIRIRPPRLPRPRPRPHWTPRP | 0.0591 |
| RRIRIRPPRLPRPRPRPHYCPRP | -0.0772 |
| RRIRIRPPRLPRPRPRPHYFPRP | -0.173 |
| RRIRIRPPRLPRPRPRPIAKPRP | -0.0645 |
| RRIRIRPPRLPRPRPRPIAPPRP | -0.0686 |
| RRIRIRPPRLPRPRPRPIERPRP | -0.0785 |
| RRIRIRPPRLPRPRPRPIGVPRP | -0.0176 |
| RRIRIRPPRLPRPRPRPIHIPRP | -0.149 |
| RRIRIRPPRLPRPRPRPIIKPRP | -0.666 |
| RRIRIRPPRLPRPRPRPIKCPRP | -0.446 |
| RRIRIRPPRLPRPRPRPIKKPRP | -0.0505 |
| RRIRIRPPRLPRPRPRPIKPPRP | -0.254 |
| RRIRIRPPRLPRPRPRPIMCPRP | -0.0373 |
| RRIRIRPPRLPRPRPRPINEPRP | -0.516 |
| RRIRIRPPRLPRPRPRPINSPRP | -0.619 |
| RRIRIRPPRLPRPRPRPIQRPRP | -0.265 |
| RRIRIRPPRLPRPRPRPIRGPRP | -0.0199 |
| RRIRIRPPRLPRPRPRPIRQPRP | 0.143 |

| Sequence | shrunken log2 fold change |
| --- | --- |
| RRIRIRPPRLPRPRPRPIRYPRP | -0.125 |
| RRIRIRPPRLPRPRPRPISCPRP | -0.0154 |
| RRIRIRPPRLPRPRPRPISEPRP | -0.492 |
| RRIRIRPPRLPRPRPRPITWPRP | -0.551 |
| RRIRIRPPRLPRPRPRPKAEPRP | 0.124 |
| RRIRIRPPRLPRPRPRPKCLPRP | -0.0748 |
| RRIRIRPPRLPRPRPRPKDFPRP | -0.457 |
| RRIRIRPPRLPRPRPRPKDHPRP | -0.222 |
| RRIRIRPPRLPRPRPRPKDSPRP | -0.273 |
| RRIRIRPPRLPRPRPRPKEAPRP | 0.0518 |
| RRIRIRPPRLPRPRPRPKEPPRP | 0.0805 |
| RRIRIRPPRLPRPRPRPKERPRP | -0.00236 |
| RRIRIRPPRLPRPRPRPKGMPRP | -0.214 |
| RRIRIRPPRLPRPRPRPKGRPRP | 0.182 |
| RRIRIRPPRLPRPRPRPKHIPRP | -0.765 |
| RRIRIRPPRLPRPRPRPKILPRP | -0.0568 |
| RRIRIRPPRLPRPRPRPKLAPRP | -0.117 |
| RRIRIRPPRLPRPRPRPKMEPRP | -0.103 |
| RRIRIRPPRLPRPRPRPKNFPRP | -0.0927 |
| RRIRIRPPRLPRPRPRPKNIPRP | -0.733 |
| RRIRIRPPRLPRPRPRPKNSPRP | -0.503 |
| RRIRIRPPRLPRPRPRPKPIPRP | -0.0437 |
| RRIRIRPPRLPRPRPRPKPMPRP | -0.0736 |
| RRIRIRPPRLPRPRPRPKPWPRP | 0.192 |
| RRIRIRPPRLPRPRPRPKRKPRP | -0.105 |

| Sequence | shrunken log2 fold change |
| --- | --- |
| RRIRIRPPRLPRPRPRPKTDPRP | -0.292 |
| RRIRIRPPRLPRPRPRPKTHPRP | -0.203 |
| RRIRIRPPRLPRPRPRPKTLPRP | -0.229 |
| RRIRIRPPRLPRPRPRPKTRPRP | -0.117 |
| RRIRIRPPRLPRPRPRPKVGPRP | 0.164 |
| RRIRIRPPRLPRPRPRPKVTPRP | -0.386 |
| RRIRIRPPRLPRPRPRPKWVPRP | -0.098 |
| RRIRIRPPRLPRPRPRPKYGPRP | -0.284 |
| RRIRIRPPRLPRPRPRPLADPRP | -0.0519 |
| RRIRIRPPRLPRPRPRPLCDPRP | -0.655 |
| RRIRIRPPRLPRPRPRPLCTPRP | -0.407 |
| RRIRIRPPRLPRPRPRPLEPPRP | 0.111 |
| RRIRIRPPRLPRPRPRPLFDPRP | -0.803 |
| RRIRIRPPRLPRPRPRPLHFPRP | -0.511 |
| RRIRIRPPRLPRPRPRPLHHPRP | -0.148 |
| RRIRIRPPRLPRPRPRPLHRPRP | -0.307 |
| RRIRIRPPRLPRPRPRPLIDPRP | -0.42 |
| RRIRIRPPRLPRPRPRPLIIPRP | -0.652 |
| RRIRIRPPRLPRPRPRPLIYPRP | -0.255 |
| RRIRIRPPRLPRPRPRPLLQPRP | -0.163 |
| RRIRIRPPRLPRPRPRPLNHPRP | -0.458 |
| RRIRIRPPRLPRPRPRPLNPPRP | -0.428 |
| RRIRIRPPRLPRPRPRPLPAPRP | 0.041 |
| RRIRIRPPRLPRPRPRPLRAPRP | 0.367 |
| RRIRIRPPRLPRPRPRPLTKPRP | -0.94 |

— the supplement of paper PMC9112550, “Optimization of the antimicrobial peptide Bac7 by deep mutational scanning” (BMC Biology, 2022)
